Assay results from PMC3862839, “From Knock-Out Phenotype to Three-Dimensional Structure of a Promising Antibiotic Target from Streptococcus pneumoniae” (PLoS ONE, 2013).

Experiments:
[1] = target: Ec-DHDPS (dimer) (Escherichia coli) (UniProt P0A6L2); conditions: cited from earlier work
[2] = substrate: CC(=O)C(=O)O; test: purified protein; conditions: co-substrate (S)-ASA 0-0.48 mM, 250 mM HEPES pH 8.0, 30 °C, 0.2 mM NADPH, 20 nM enzyme, global ping-pong fit without substrate inhibition
Excerpt: (§1) DHDPS-DHDPR coupled assay, NADPH oxidation on Sp-DHDPS (dihydrodipicolinate synthase)

[3] = substrate: N[C@@H](CC=O)C(=O)O; test: purified protein; conditions: co-substrate pyruvate 0.5-16 mM, 250 mM HEPES pH 8.0, 30 °C, 0.2 mM NADPH, 20 nM enzyme, global ping-pong fit without substrate inhibition
Excerpt: as §1

[4] = target: the molecule itself; test: AUC; sedimentation velocity, 40,000 rpm, 20°C, 20 mM Tris-HCl pH 8.0, 150 mM NaCl; Sp-DHDPS at 4.5 µM and at 740 nM; c(s) and c(M) distributions (SEDFIT)
[5] = target: the molecule itself; test: AUC; sedimentation equilibrium, 10,000 and 18,000 rpm, 20°C, 20 mM Tris-HCl pH 8.0, 150 mM NaCl; 296, 355 and 740 nM Sp-DHDPS; global fit to a dimer-tetramer model (SEDPHAT); tetramer to dimers

## Ec-DHDPS (dimer) (from UniProt P0A6L2)
[1]
  Kd: 76 nM

B1: Streptococcus pneumoniae dihydrodipicolinate synthase (enzyme, UniProt Q97R25 1-311, looked up)
chain: MSYQDLKKCKIITAFITPFHEDGSINFDAIPALIEHLLAHHTDGILLAGTTAESPTLTHDEELELFAAVQKVVNGRVPLIAGVGTNDTRDSIEFVKEVAEFGGFAAGLAIVPYYNKPSQEGMYQHFKTIADASDLPIIIYNIPGRVVVELTPETMLRLADHPNIIGVKECTSLANMAYLIEHKPEEFLIYTGEDGDAFHAMNLGADGVISVASHTNGDEMHEMFTAIAESDMKKAAAIQRKFIPKVNALFSYPSPAPVKAILNYMGFEAGPTRLPLVPAPEEDAKRIIKVVVDGDYEATKATVTGVLRPDY
notes: Dihydrodipicolinate synthase (DHDPS, product of dapA) of Streptococcus pneumoniae; Homotetramer (dimer of 'tight' dimers) in solution and in the crystal; also called Sp-DHDPS; sp-DHDPS
[2]
  Km: 2550 ± 50 µM
  kcat: 22 s⁻¹
[3]
  Km: 44 ± 3 µM
  kcat: 22 s⁻¹
[4]
  stoichiometry N: 4
[5]
  Kd: 1.7 nM
